Results as given in the supplement of paper PMC9732359.
± gives the uncertainty stated by the source.

Assay: protein stability index of a GFP-peptide fusion (yeast GPS) (PSI 1-4); higher = more stable; sorted into four equal gates, so the index is relative within each strain
Procedure, shortened: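 Yeast carrying a pooled library were grown to mid-log phase in leucine-free medium. Each library plasmid expresses Cherry and has a tiled 17-residue yeast protein peptide fused downstream of GFP. Cells were sorted into four equal gates by GFP/Cherry ratio, and plasmids from each gate were PCR-amplified, Illumina-sequenced and assigned to strains by barcode. Summing, across gates, the read frequency times the gate number gave each peptide's protein stability index.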

| Sequence | protein stability index (doa10∆) | protein stability index (pdr5∆) | protein stability index (san1∆) | protein stability index (ubr1∆) |
| --- | --- | --- | --- | --- |
| DYINELSNSNRFELHGD [REC8] | 2.78 ± 0.12 | 3.08 ± 0.11 | 3 ± 0.092 | 3.03 ± 0.13 |
| RFKMERAGVTHVLSRLS [RET1] | – | 1.55 ± 0.18 | 1.2 ± 0.27 | 1.3 ± 0.23 |
| KNTIDFERFPSPSTSAN [RPN4] | 2.87 ± 0.09 | 2.95 ± 0.064 | 2.72 ± 0.082 | 3.03 ± 0.056 |
| CINKWIKTRDACPLDNQ [HRT1] | 3.16 ± 0.093 | 3.03 ± 0.079 | 2.72 ± 0.078 | 3.17 ± 0.05 |
| GQGEQVDDVLETISAIE [RPN1] | 3.4 ± 0.27 | 3.05 ± 0.18 | 2.69 ± 0.19 | 2.91 ± 0.19 |
| ILQILNLMILNTKVPVD [YML103C/NUP188] | 1.34 ± 0.1 | 1.51 ± 0.07 | 1.12 ± 0.29 | 1.34 ± 0.1 |
| NVKNDVSFNDSQSMVTN [YIL149C/MLP2] | 3.1 ± 0.054 | 3.37 ± 0.081 | 3.07 ± 0.067 | 3.3 ± 0.04 |
| NIDINNEDENIQLIKIL [YJL041W/NSP1] | 2.52 ± 0.055 | 2.56 ± 0.071 | 2.99 ± 0.049 | 2.7 ± 0.042 |
| SYAVSPYAQKPLQGIFH [QCR8] | 2.51 ± 0.082 | 2.4 ± 0.061 | 2.54 ± 0.054 | 2.6 ± 0.052 |
| LQPFWFRVNNASINTSA [ECM29] | 1.66 ± 0.1 | 1.49 ± 0.068 | 1.26 ± 0.16 | 1.49 ± 0.071 |
| NSSEQESDYEPNNETSV [SIR3] | 3.11 ± 0.084 | 3.27 ± 0.085 | 3.02 ± 0.063 | 2.84 ± 0.092 |
| RYEEFADKVKLGRVRNH [RPC40] | 2.93 ± 0.064 | 2.99 ± 0.074 | 3 ± 0.068 | 2.96 ± 0.056 |
| NEKSQAEQEKAKNIISN [LRP1] | 2.59 ± 0.092 | 2.83 ± 0.12 | 2.86 ± 0.078 | 2.62 ± 0.17 |
| IYDFPGTPEATKGMITN [NUT2] | 2.54 ± 0.11 | 2.54 ± 0.11 | 2.98 ± 0.15 | 3.3 ± 0.086 |
| APEIPEDLYYLIKKAVS [RPS13] | 2.94 ± 0.081 | 2.92 ± 0.096 | 3.07 ± 0.079 | 2.69 ± 0.13 |
| KDRISHEVVQDDSFSLL [PCI8] | 3.19 ± 0.082 | 3.46 ± 0.071 | 3.19 ± 0.056 | 3.05 ± 0.075 |
| GLSPKKVGEDIAKATKE [RPL12A] | 3.03 ± 0.16 | 3.22 ± 0.14 | 3.13 ± 0.18 | 2.77 ± 0.24 |
| VVVVLEEPSASIMVELK [SIR3] | 2.95 ± 0.083 | 2.99 ± 0.16 | 3.28 ± 0.065 | 2.86 ± 0.2 |
| KVVNGNSADAAYAQVEI [FAS2] | 2.53 ± 0.063 | 2.67 ± 0.07 | 2.14 ± 0.068 | 2.42 ± 0.057 |
| DTKKVKESPANDQASNE [YIL149C/MLP2] | 3.17 ± 0.13 | 3.29 ± 0.1 | 3.12 ± 0.2 | 3.15 ± 0.19 |
| MGRVIRNQRKGAGSIFT [RPL2A] | 2.95 ± 0.2 | 3.28 ± 0.12 | 2.77 ± 0.25 | 2.75 ± 0.15 |
| RFDAQTGSDREVQRILI [RPT3] | 3.09 ± 0.12 | 3.08 ± 0.14 | 3.43 ± 0.1 | 3.4 ± 0.16 |
| GSQIKFIVVPDLLKNAP [SMD3] | 2.05 ± 0.052 | 2.13 ± 0.047 | 1.8 ± 0.055 | 1.8 ± 0.038 |
| ENIIQRLQAANSMEYTG [CDC53] | 1.94 ± 0.065 | 2.32 ± 0.11 | 2.25 ± 0.18 | 1.9 ± 0.095 |
| ELDQEYRSCETQDESEI [SMC4] | 3.11 ± 0.12 | 3.24 ± 0.21 | 2.67 ± 0.19 | 3.31 ± 0.091 |
| PQKPVPLNVLQDQYKEG [SNF2] | 3.01 ± 0.07 | 3.33 ± 0.096 | 3.1 ± 0.086 | 2.94 ± 0.044 |
